For test [1], the target named is T1, murine IL-13 (murine).
T1 sequence: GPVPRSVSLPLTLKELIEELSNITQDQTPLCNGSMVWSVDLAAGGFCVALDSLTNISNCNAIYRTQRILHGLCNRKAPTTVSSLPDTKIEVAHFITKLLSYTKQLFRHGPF

In test [2] the target is T1, murine IL-13 (murine). The source holds these as a separate data set.

human IL-13 (human), sequence (chain, as listed by the source): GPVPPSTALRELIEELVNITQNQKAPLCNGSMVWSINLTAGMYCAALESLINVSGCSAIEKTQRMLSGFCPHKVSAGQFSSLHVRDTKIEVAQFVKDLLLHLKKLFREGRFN

B1: BAK209B11 scFv (scFv, V domains shown)
VH: VQLQESGGGGLVQPGGSLRLSCAASGFTFSSYGMSWVRQAPGKGLEWVSSISASGDSTFYADSVKGRFTISRDNNKNMVFLQVNSLRADDTAVYFCAKDWSQWLVGDAFDVWGRGTTVTVSS
VL: DIQLTQSPSTLSASVGDRVTITCRASQSVSLWVAWYQQRPGKAPKLLIYDGSTLQSGVPARFSGSGSGTEFTLTISSLQPDDFATYYCQQYKTFSTFGQGTKVEIKR
Consider B1, for which the IC50, TF-1 cell proliferation with murine IL-13 (murine) [1] came to 185 nM.

B2: BAK209B11 human IgG4 (antibody, V domains shown)
VH: VQLQESGGGGLVQPGGSLRLSCAASGFTFSSYGMSWVRQAPGKGLEWVSSISASGDSTFYADSVKGRFTISRDNNKNMVFLQVNSLRADDTAVYFCAKDWSQWLVGDAFDVWGRGTTVTVSS
VL: DIQLTQSPSTLSASVGDRVTITCRASQSVSLWVAWYQQRPGKAPKLLIYDGSTLQSGVPARFSGSGSGTEFTLTISSLQPDDFATYYCQQYKTFSTFGQGTKVEIKR
Turning to B2, the IC50, B9 cell proliferation with murine IL-13 (murine) [2] came to 0.776 nM.

B3: BAK278D6 scFv (scFv, V domains shown)
VH: EVQLVQSGAEVKKPGASVKVSCKASGYTFRNYGLSWVRQAPGQGLEWMGWISANNGDTNYGQEFQGRITMTTETSTNTAHMELRSLRSDDTAVYYCVRDSSSNWARWFFDLWGKGTMVTVSS
VL: SYVLTQPPSVSVAPGQTARIPCGGNNIGSKLVHWYQQKPGQAPVLVVYDDGDRPSGIPERFSGSNSGNTATLTISRIDAGDEADYYCQVWDTGSDPVVFGGGTKLTVL
B3 returned an IC50, TF-1 proliferation (Mean TF1) with human IL-13 (human) of 44 nM.

The values above are taken from patent US7935343B2.
